Columns and labels:
[1] = OTA detoxification activity assay (specific activity, fluorescence reduction ex/em 390/450 nm); type: biochemical; conditions: for Specific OTA detoxification activities in % compared to the enzyme of SEQ ID NO: 1, pH 6.0 / Specific OTA detoxification activities in % compared to the enzyme of SEQ ID NO: 1, pH 7.5: SEQ ID NO: 1 = 100%; for Specific OTA detoxification activities in % compared to the enzyme of SEQ ID NO: 2, pH 6.0 / Specific OTA detoxification activities in % compared to the enzyme of SEQ ID NO: 2, pH 7.5: SEQ ID NO: 2 = 100%
In short: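 Recombinant enzyme preparation with 200 ng/mL OTA in 100 mM sodium phosphate, at pH 6.0 and pH 7.5, 37° C. Degradation followed as the fall in fluorescence at ex/em 390/450 nm. Specific activity taken from the initial linear slope; one unit degrades 1 μmol OTA per min at a starting OTA of […].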

[2] = Thermostability assay: residual OTA detoxification activity after 10 min incubation at 45-99° C. (T50); type: physicochemical; conditions: 0.1 mg/mL protein in 20 mM Tris-HCl pH 7.5, residual OTA detoxification activity relative to 4° C. reference aliquot
In short: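 T50 marks the temperature range at which half the starting OTA-detoxifying activity is lost, versus an unheated 4 °C reference. Samples were 0.1 mg/mL purified protein in 20 mM Tris-HCl pH 7.5, exposed for 10 min to 45, 55, 65, 75, 80, 85, 90, 95 or 99 °C.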

B1: 51 (protein)
chain: MTTRTRILTAFLSLLAANACAADAAPAAPHTVVLRAARMFDGASGKLVDHPQLTIVGNKIVRIAQGDKAEVPAGAEVVDLGDATLLPGFIDAHVHLSGQSSDNWYGDFFDNMMRFPAEQALYGAYYARITLEAGFTSVRDVGSTDWVALGLRNAIDAGKVPGPRMLVSNYGVGSTGGHADQDPIPPHKLPLAGPLQGVCNGPEECRAAVRYQIKYGANVIKFMPSGGVLSLSDPVDAPELSQDEMNAVIGESHAWGRKVAAHAHGDKAAKMAVAAGVDSIEHGSFIEDDTLRAMKAKNVYLVPTISAIAHVEEKIGTFPPVIAEKGRAAAAHLRQTFRHAVQIGVPIALGTDAGVGAHGSNAREFRYMVENGLTPAQALLAGTANAARLLGTFDRVGTLEAGKLADVVAVPGNPIADITVTERPLFVMKDGVVVRRDAVR
modifications: exemplary polypeptide
Specific OTA detoxification activities in % compared to the enzyme of SEQ ID NO: 1, pH 6.0 [1]: 46%
Specific OTA detoxification activities in % compared to the enzyme of SEQ ID NO: 1, pH 7.5 [1]: 140%
T50 (temperature at which 50% of the initial activity was maintained) [2]: 68-70 °C

B2: 52 (protein)
chain: MTTRTRILTAFLSLLAANACAADAAPAAPHTVVLRAARMFDGASGKLVDHPQLTIVGNKIVRIAQGDKAEVPAGAEVVDLGDATLLPGFIDAHVHLSGQSSDNWYGDFFDNMMRFPAEQALYGAYYARITLEAGFTSVRDVGSTDWVALGLRNAIDAGKVPGPRMLVSNYAVGSTGGHADQDGIPPHKLPLAGPLQGVCNGPEECRAAVRYQIKYGANVIKFMPSGGVLSLSDPVDAPELSQDEMNAVIGESHAWGRKVAAHAHGDKAAKMAVAAGVDSIEHGSFIEDDTLRAMKAKNVYLVPTISAIAHVEEKIGTFPPVIAEKGRAAAAHLRQTFRHAVQIGVPIALGTDAGVGAHGSNAREFRYMVENGLTPAQALLAGTANAARLLGTFDRVGTLEAGKLADVVAVPGNPIADITVTERPLFVMKDGVVVRRDAVR
modifications: exemplary polypeptide
Specific OTA detoxification activities in % compared to the enzyme of SEQ ID NO: 1, pH 6.0 [1]: 16%
Specific OTA detoxification activities in % compared to the enzyme of SEQ ID NO: 1, pH 7.5 [1]: 44%
T50 (temperature at which 50% of the initial activity was maintained) [2]: <63.2 °C

B3: 37 (protein)
chain: MYSLAIRNGIVFDGEKFIGKTNIYVDGDKIVKITNERLDAKEEVNAEGYFVMPGLIDAHLHLTGIRGGSLLMGYLLDDPRTRLLRAANWARELLMAGFTTVRDCGGPNSIILRNAINEGIIPGPRIIAAGSPITQTFGHAELSHSLPLEWSIQLGFGEICDGVDECIKAARKVLRSGADFIKIMATGGVLSERDRPEWPQLTPEEMSAIVREAEKVGTYVAAHAHGDKGARIAVEAGVRTIEHGSLITEETVKLMAEKGVSLTPTLSIQELIYKYGKQMGIDPWGLEKIGQVREGVINSIKLARKYGVMILAGTDLGFKTGLDIDMGKNWVEVKLLVELGGLSSEEALRAATGNASKMLRLNTGIIREGYLADIVLINGNPLENINDIARVSTVIKGGKVTVENGKLI
modifications: exemplary polypeptide
Specific OTA detoxification activities in % compared to the enzyme of SEQ ID NO: 2, pH 6.0 [1]: 42.00%
Specific OTA detoxification activities in % compared to the enzyme of SEQ ID NO: 2, pH 7.5 [1]: 187.00%
T50 (temperature at which 50% of the initial activity was maintained) [2]: >99 °C

B4: 38 (protein)
chain: MYSLAIRNGIVFDGEKFIGKTNIYVDGDKIVKITNERLDAKEEVNAEGYFVMPGLIDAHLHLTGIRGGSLLMGYLLDDPRTRLLRAANWARELLMAGFTTVRDCGSPNSIILRNAINEGIIPGPRIIAAGSPITQTFGHAELSHSLPLEWSIQLGFGEICDGVDECIKAARKVLRSGADFIKIMATGGVLSERDRPEWPQLTPEEMSAIVREAEKVGTYVAAHAHGDKGARIAVEAGVRTIEHGSLITEETVKLMAEKGVSLTPTLSIQELIYKYGKQMGIDPWGLEKIGQVREGVINSIKLARKYGVMILAGTDLGFKTGLDIDMGKNWVEVKLLVELGGLSSEEALRAATGNASKMLRLNTGIIREGYLADIVLINGNPLENINDIARVSTVIKGGKVTVENGKLI
modifications: exemplary polypeptide
Specific OTA detoxification activities in % compared to the enzyme of SEQ ID NO: 2, pH 6.0 [1]: 11.00%
Specific OTA detoxification activities in % compared to the enzyme of SEQ ID NO: 2, pH 7.5 [1]: 53.00%
T50 (temperature at which 50% of the initial activity was maintained) [2]: >99 °C

— patent US20240352438A1, “MEANS AND METHODS FOR DETOXIFYING OCHRATOXIN A” (DSM Austria GmbH, priority 2021, published 2024)
